Here are results for 138 substances from the supplement of paper PMC12042874.

This data set is described as follows: amyloid nucleation score (Sup35N fusion, yeast selection) (log enrichment); library NNK2; higher = more nucleation; inactive = no reads after selection. The method, boiled down: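 Libraries of peptides of 20 random codons fused to Sup35N were expressed in psi-negative yeast and induced 24 hours with 100 μM copper sulfate. Selection was 7 days at 30°C on medium lacking adenine and uracil, and plasmid inserts were Illumina-sequenced before and after selection. Nucleation score is the DiMSum log enrichment of output over input reads, centred on the mode score of non-aggregating sequences, and sequences with under 100 input reads were left out.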

± gives the uncertainty stated by the source.

With QNHVRYQGRLPGSCLGCKYR, the amyloid nucleation score is -0.488 ± 1.

Substance RWPNLSDAQVWAPTSQLLSS displayed an amyloid nucleation score of 0.92 ± 0.32.

In the case of TLECW, the amyloid nucleation score was 4.1 ± 0.049.

YWWCRPILILCSNLDDVWSL displayed an amyloid nucleation score of 7.6 ± 0.079.

TIYPFYEKRMRY: the amyloid nucleation score was -0.459 ± 1.1.

Substance SDTGGSVYMKTVGRTHLTYD gave an amyloid nucleation score of -0.252 ± 0.25.

RIFVIGNFVDCWLRLWT showed an amyloid nucleation score of 0.256 ± 0.65.

In the case of FSCSSDCLIFVSHRNRVLLN, the amyloid nucleation score was -0.596 ± 0.37.

For DNDCHCSWENISYLWGHLRG, the amyloid nucleation score result was “inactive”.

The substance CVVVRSCI displayed an amyloid nucleation score of -0.342 ± 1.1.

In the case of GSVVHLQSCNISLIAYGLHG, the amyloid nucleation score stood at 8.298 ± 0.054.

Turning to ENIYRRLLVLELLVWSCRGK, the amyloid nucleation score is 0.569 ± 0.34.

Substance TYRIGYMNQCTSR showed an amyloid nucleation score of -0.215 ± 0.35.

Consider TTSRLRWKRSHHKW, for which the amyloid nucleation score amounted to 1.4 ± 0.29.

With HCGTHVYYGAIWV, the amyloid nucleation score was -0.483 ± 0.27.

IDLAHGWSSSH returned an amyloid nucleation score of 0.66 ± 0.57.

In turn, LLNVIVVRIK registered an amyloid nucleation score of 5.313 ± 0.03.

In turn, ADRYMHSTHVDNCPYAGFTS gave an amyloid nucleation score of 0.444 ± 0.44.

Substance KNLMCQARNYSLIGALWSVS came in with an amyloid nucleation score of -0.451 ± 0.76.

As for LRFLLPPTMTVGMKFSSDAG, the amyloid nucleation score is 0.062 ± 0.79.

With SFVTCCVSCGWRGQIHAEKL, the amyloid nucleation score worked out at 6.78 ± 0.073.

Turning to NQCAVQGLYRRRMVHDRQED, the amyloid nucleation score is -0.52 ± 0.78.

ISLISHVLANLSVIRDHANE registered an amyloid nucleation score of -0.68 ± 0.4.

As to FVLCLDLHDESQERWETIRR, the amyloid nucleation score was determined as 0.925 ± 0.67.

As to VRFFYSFVPT, the amyloid nucleation score entry is “inactive”.

As for YSERSTEGQ, the amyloid nucleation score came out at 0.698 ± 0.26.

The substance RINIFLRITFHNLLQLNRSG yielded an amyloid nucleation score of 6.04 ± 0.081.

Regarding VSTLRQGWSILQTPNYVRS, the amyloid nucleation score is -0.219 ± 0.76.

STPPLILQSYV gave an amyloid nucleation score of -1.17 ± 0.75.

AKVRLYVRGGSLLIGIRSVV had an amyloid nucleation score of 0.555 ± 0.22.

For the substance CPDISGVSRHRAKRQKNWLY, the amyloid nucleation score result was “inactive”.

LCENWSSLFITMKPYDFSFP came in with an amyloid nucleation score of -0.43 ± 1.1.

For the substance HTVLPWYTIRYKWEGVGLTD, the amyloid nucleation score came out at 0.403 ± 0.45.

As for YVFLEGFNRVFDHVACIGLK, the amyloid nucleation score was -0.721 ± 0.35.

Take LNNHTPDLVWRSSVIGRCQK: the amyloid nucleation score worked out at 0.47 ± 0.48.

GPCSSGSDSTCQMPCLAWPG yielded an amyloid nucleation score of 0.74 ± 0.51.

For the substance TKVGYLNS, the amyloid nucleation score result was “inactive”.

YVTVTNGMI yielded an amyloid nucleation score of -0.447 ± 0.61.

IMCQVSR gave an amyloid nucleation score of -0.171 ± 1.

Substance SGTRYYPSWIFGFLVVCKG registered an amyloid nucleation score of -0.404 ± 0.64.

Regarding NVAHGW, the amyloid nucleation score is -0.322 ± 0.44.

Turning to YNGPLHYDRNDSSVKQSVFI, the amyloid nucleation score result was “inactive”.

RSGWVEPSNITVIWVKMLVQ came in with an amyloid nucleation score of 0.166 ± 0.55.

For YFSFFVSKVTGGWSCHVESA, the amyloid nucleation score is -0.004 ± 0.34.

Take TKMVCSKRMFVECVLNLF: the amyloid nucleation score stood at 0.221 ± 0.31.

In turn, DCRIVREHLPCPSFFRSFSR gave an amyloid nucleation score of 0.164 ± 1.1.

In the case of TWQEAHNSQLGGFSIPEKN, the amyloid nucleation score amounted to 0.155 ± 1.1.

The substance LYFRYWVMDSQASNFHRCRG returned an amyloid nucleation score of -0.14 ± 1.

On to FWLSYTDLWNNY, for which the amyloid nucleation score entry is “inactive”.

RVMFYVINEVWDMNSARTNT: the amyloid nucleation score is 6.38 ± 0.08.

In the case of GRYNLLNKGNSAGVWCGLFS, the amyloid nucleation score is -0.324 ± 1.1.

In the case of PSIKCTLFYSVTYLFMWGRK, the amyloid nucleation score is -0.406 ± 0.63.

In turn, VNAFLSLKSKACHWACGNDD came in with an amyloid nucleation score of 3.67 ± 0.055.

On to TLQLSSADPGLNAFSDVYRV, for which the amyloid nucleation score was -0.627 ± 1.1.

HKLLCGYTQSQHQRIGFQEF registered an amyloid nucleation score of -0.733 ± 1.1.

In turn, LCHKATSSFYPW yielded an amyloid nucleation score of -0.808 ± 0.45.

SMLLVAFWWKGGWTRISPCQ showed an amyloid nucleation score of 0.762 ± 0.23.

TLFGHFSYFQD: the amyloid nucleation score was -0.124 ± 0.65.

In turn, SHQWLRRLPWVI came in with an amyloid nucleation score of 0.528 ± 0.44.

On to SYLVLIHKALSFGRTISDHP, for which the amyloid nucleation score was -0.467 ± 0.29.

FDSPYPMPMSHSVNSSLIIW showed an amyloid nucleation score of -0.155 ± 0.3.

As to KLMWERTFVCSRKRFKTYYK, the amyloid nucleation score is -0.359 ± 0.41.

KRMSPWAVFGC gave an amyloid nucleation score of 0.872 ± 0.47.

DWNTWTSNFLALTGAWTGLG yielded an amyloid nucleation score of 0.062 ± 0.77.

RMSIWRFRMSLAQDGLGRFQ: the amyloid nucleation score worked out at 5.564 ± 0.044.

On to RFLEALTVRHCSPL, for which the amyloid nucleation score amounted to 4.71 ± 0.06.

As to SRTRCDIWFNLRTFMVRVRK, the amyloid nucleation score is -0.46 ± 1.1.

With MKFQPETVCYFRGYWLDRQY, the amyloid nucleation score is -0.251 ± 0.39.

Take CAKGPKSWQNGNE: the amyloid nucleation score stood at 0.626 ± 0.8.

Regarding VFNSTFANLW, the amyloid nucleation score was 2.6 ± 0.092.

In turn, VSRGNAGWS yielded an amyloid nucleation score of 3.6 ± 0.075.

As to IEFSDQVRCYLFCCRC, the amyloid nucleation score came to 8.977 ± 0.07.

On to HRFVFGVYWVVVR, for which the amyloid nucleation score entry was “inactive”.

The substance TCDWVVLIYPSSGCCRLEWR registered an amyloid nucleation score of 0.99 ± 0.36.

For LNMRT, the amyloid nucleation score was -0.443 ± 0.64.

Consider IMLATAAYFVLLGIFPGAWF, for which the amyloid nucleation score entry was “inactive”.

Take SWMSGVVITETHTALGSWVN: the amyloid nucleation score was found to be 0.442 ± 0.37.

For the substance GLTASL, the amyloid nucleation score was -0.375 ± 0.49.

The substance YFKMSFCSFWL registered an amyloid nucleation score of 1.91 ± 0.091.

The substance PSNKYSDVPSNAQSGFAWYG registered an amyloid nucleation score of 0.56 ± 0.57.

In turn, RVMMLEGQASNMAYEEL yielded an amyloid nucleation score of 0.274 ± 1.1.

The substance CLSFIILMWLDRNVGMVQI showed an amyloid nucleation score of -0.579 ± 0.49.

Substance CPTFKIKRDMSLTHRLFNIY displayed an amyloid nucleation score of -1.64 ± 0.54.

In turn, RGVYKHSPHLIT showed an amyloid nucleation score of -0.127 ± 1.1.

In the case of FQNITVYSFRATGVTGQRSC, the amyloid nucleation score was -0.447 ± 0.5.

For MCLYVRLWFMSPVSLDSSAL, the amyloid nucleation score was -0.512 ± 0.55.

RLEALRCLSYITSSSLYRCP registered an amyloid nucleation score of 0.163 ± 0.41.

RSIWMKLCMWIECSDKETRF registered an amyloid nucleation score of 4.17 ± 0.13.

EAVNGWALLHIVSQ displayed an amyloid nucleation score of 0.111 ± 0.33.

For SVLANIMLVVVGNSGKYRSG, the amyloid nucleation score was found to be 0.627 ± 0.74.

Substance IRWSVGSGKIRGSFLLLMDL came in with an amyloid nucleation score of -0.432 ± 1.1.

For NGTVDACLSLMPQGWHSGLE, the amyloid nucleation score came to 3.76 ± 0.12.

TLYVVYLDEICYLLFKVSYC had an amyloid nucleation score of 1.2 ± 0.66.

VTVVWESDSFRYVYWLNRLE registered an amyloid nucleation score of 0.926 ± 0.48.

The substance YNYVPLDFVRPVSDWSLELR showed an amyloid nucleation score of -0.405 ± 0.39.

On to LFKDMYSDLKHILNCGFQTT, for which the amyloid nucleation score is -0.711 ± 0.45.

With FGTRHYLYSTSHHAHLGVDM, the amyloid nucleation score amounted to 1.83 ± 0.21.

RHGMNGRLTFLASTYSASRL: the amyloid nucleation score is 0.349 ± 0.22.

Take WPGRRRYAMCVMTKRRGGLE: the amyloid nucleation score came out at 0.422 ± 0.29.

As to KLGDWARRPCSSGPARTYGR, the amyloid nucleation score was found to be 0.843 ± 0.19.

In the case of VFIRAGIVFQFWCNG, the amyloid nucleation score is 7.22 ± 0.043.

Regarding IYCIFRTSKLMNGVMVHSRQ, the amyloid nucleation score is -0.454 ± 0.37.

As for MVYRSDAGCSPVVTKK, the amyloid nucleation score was found to be 0.259 ± 0.5.

Substance IICAKDMFNLFIKVRQYGWS had an amyloid nucleation score of 4.698 ± 0.038.

In the case of SQWSCVRTSFGPPMYKWFDL, the amyloid nucleation score was found to be 5.655 ± 0.045.

Substance KTAFKSNTEITSPLVTVLAL came in with an amyloid nucleation score of 0.555 ± 0.33.

Regarding GIYYTT, the amyloid nucleation score was -0.854 ± 0.28.

For LTIPEMNQGLQLSLSIHAQM, the amyloid nucleation score is -0.902 ± 0.63.

With IDMYRRQYDQSQIKCNFSS, the amyloid nucleation score was -0.087 ± 0.45.

As to RNSSYIDFIGRWH, the amyloid nucleation score entry is “inactive”.

Consider RQVANWAVVIGNPMVMNPEG, for which the amyloid nucleation score was -0.295 ± 0.63.

Substance LVSVVWTKCRRGQRGVLVAS came in with an amyloid nucleation score of 1.06 ± 0.38.

The substance DSVFVFGSHLFLQNSVRGRT had an amyloid nucleation score of -0.295 ± 0.24.

In turn, WNWRVNDGVPGMTYVKAYSS had an amyloid nucleation score of -0.672 ± 0.42.

In turn, GVCRDNILRENFGGWSTSRS registered an amyloid nucleation score of 0.15 ± 0.46.

In the case of KTKLIRVFSTCRT, the amyloid nucleation score entry is “inactive”.

On to TAGWIFEWTFGPVYVFNSPW, for which the amyloid nucleation score was found to be 8.016 ± 0.061.

As to LGYRRSCEQGWGMLLGNYSH, the amyloid nucleation score result is “inactive”.

SWHFKSKHSCVFFRCEYVVS displayed an amyloid nucleation score of -0.373 ± 1.

Turning to LWCSDCISTEIIHNQRFA, the amyloid nucleation score is -0.152 ± 1.

For VCIMSRYKLQLLKNSNGITH, the amyloid nucleation score was found to be 2.53 ± 0.16.

On to SIPSCCWSLMGFNIIELDDG, for which the amyloid nucleation score is 0.173 ± 1.1.

PSDFYWSMFEQYCHGV yielded an amyloid nucleation score of 4.51 ± 0.05.

The substance IVSAKCYRIMVDFYYGYFRL returned an amyloid nucleation score of 0.01 ± 0.65.

QSLVIN registered an amyloid nucleation score of 4.58 ± 0.05.

In turn, AHFQYRGNRAFQVWNYCGKY showed an amyloid nucleation score of 2.55 ± 0.12.

ILWISHLELCENVLVLDWQM: the amyloid nucleation score amounted to 2.99 ± 0.048.

As to GYEWSSVSEQGC, the amyloid nucleation score worked out at 1.27 ± 0.52.

For the substance DQSGDQARNCKCFGSSL, the amyloid nucleation score was found to be 0.298 ± 0.5.

Take GIHGIIITRV: the amyloid nucleation score was determined as 3.22 ± 0.14.

CIVSVNERRVVFGAVNTEFR: the amyloid nucleation score stood at 4.79 ± 0.058.

Substance ICQRVDCSLCGPGWCTFVEH registered an amyloid nucleation score of 9.398 ± 0.051.

VIGTTGMYLCVVLETIHNWC came in with an amyloid nucleation score of 1.07 ± 0.26.

Turning to FDLWIPGAVVEVIDMGSAAR, the amyloid nucleation score worked out at 0.651 ± 0.44.

For the substance WHDIQALTSMDVGRYLGDAI, the amyloid nucleation score is -0.696 ± 0.26.

Regarding LWIYRVAYFGFLNYKFSVFL, the amyloid nucleation score was -1.09 ± 0.42.

In turn, FGSVEVVRRIRSFWLFESPR showed an amyloid nucleation score of 3.58 ± 0.14.

In the case of SIFHGWARWKGFG, the amyloid nucleation score was -0.258 ± 0.48.
